Measured values published in patent US20090227507A1, “Angiotensin (1-7) Dosage Forms and Uses Thereof” (UNIVERSITY OF SOUTHERN CALIFORNIA, priority 2008, published 2009).

Experiment: Hematology profile (CBC with differential, platelet count) in healthy men;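 on Platelet Count, Median Change from Baseline: Thousands of platelets per mm³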;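 on Platelet Count, Median: Thousands of platelets per mm³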
Type: in vivo, human
Protocol: Pharmacological Effect: The following evaluations (under efficacy and safety in the protocol) were performed: • Effects on the number of mature blood cells: • 1. CBC (with differential), platelet count, reticulocyte count. • Effects on early hematopoietic progenitor cells and mature lymphocyte subsets in the periphery: • 1. Flow cytometry to evaluate frequency of peripheral blood progenitor cells (eg, CD34^+) and lymphocyte subsets (eg, CD3, CD4, CD8) in peripheral blood. • 2. Collection of blood for later possible culture for progenitor cells (eg, colony forming units-granulocyte/macrophage [CFU-GM]) to evaluate potential effects on CD34^+ hematopoietic progenitor cells in peripheral blood. • 3.
The effect of USB003 on the number of mature blood cells was assessed by the complete blood count with differential, platelet and reticulocyte counts. The effects on early hematopoietic progenitor cells and mature lymphocyte subsets in the periphery were assessed by flow cytometry. In addition, blood was collected and processed to enable culture of progenitors at a later time.
Red blood cell (RBC) count, RBC indices, white blood cell count (WBC) with differential, reticulocyte count, platelet count, hemoglobin (Hb), hematocrit (Hct), plasma hemoglobin, peripheral flow cytometry, including CD34^+, flow cytometry for enumeration of CD3, CD4, and CD8 lymphocytes, and culture for progenitor cells in peripheral blood including colony-forming units-granulocyte/macrophage (CFU-GM).

[1] = 200 μg/kg, N = 9, baseline to Day 8
[2] = 200 μg/kg, N = 9, baseline to Day 20
[3] = 300 μg/kg, N = 8, baseline to Day 8

Asp-Arg-Val-Tyr-Ile-His-Pro [USB003]
absolute neutrophil concentrations (200 ug/kg and 300 ug/kg, at 20 days): apparent dose-related increase | shifts in eosinophils from high at baseline to normal (200 μg/kg dose group, Day 8 and Day 20, compared with placebo): notable number of subjects | Absolute Eosinophils shift H-N, number of subjects [1]: 1 | Absolute Eosinophils shift L-N, number of subjects [1]: — (“—” = 0) | Absolute Eosinophils shift N-H, number of subjects [1]: — (“—” = 0) | Absolute Eosinophils shift N-L, number of subjects [1]: — (“—” = 0) | Absolute Reticulocytes shift H-N, number of subjects [1]: — (“—” = 0) | Absolute Reticulocytes shift L-N, number of subjects [1]: — (“—” = 0) | Absolute Reticulocytes shift N-H, number of subjects [1]: — (“—” = 0) | Absolute Reticulocytes shift N-L, number of subjects [1]: — (“—” = 0) | Eosinophils shift H-N, number of subjects [1]: 3 | Eosinophils shift L-N, number of subjects [1]: — (“—” = 0) | Eosinophils shift N-H, number of subjects [1]: — (“—” = 0) | Eosinophils shift N-L, number of subjects [1]: — (“—” = 0) | Hematocrit shift H-N, number of subjects [1]: — (“—” = 0) | Hematocrit shift L-N, number of subjects [1]: — (“—” = 0) | Hematocrit shift N-H, number of subjects [1]: — (“—” = 0) | Hematocrit shift N-L, number of subjects [1]: — (“—” = 0) | Hemoglobin shift H-N, number of subjects [1]: — (“—” = 0) | Hemoglobin shift L-N, number of subjects [1]: — (“—” = 0) | Hemoglobin shift N-H, number of subjects [1]: — (“—” = 0) | Hemoglobin shift N-L, number of subjects [1]: — (“—” = 0) | Lymphocytes shift H-N, number of subjects [1]: 1 | Lymphocytes shift L-N, number of subjects [1]: 1 | Lymphocytes shift N-H, number of subjects [1]: — (“—” = 0) | Lymphocytes shift N-L, number of subjects [1]: — (“—” = 0) | Plasma Hemoglobin shift H-N, number of subjects [1]: — (“—” = 0) | Plasma Hemoglobin shift L-N, number of subjects [1]: — (“—” = 0) | Plasma Hemoglobin shift N-H, number of subjects [1]: — (“—” = 0) | Plasma Hemoglobin shift N-L, number of subjects [1]: — (“—” = 0) | Platelet Count shift H-N, number of subjects [1]: — (“—” = 0) | Platelet Count shift L-N, number of subjects [1]: — (“—” = 0) | Platelet Count shift N-H, number of subjects [1]: 1 | Platelet Count shift N-L, number of subjects [1]: — (“—” = 0) | RBC shift H-N, number of subjects [1]: — (“—” = 0) | RBC shift L-N, number of subjects [1]: — (“—” = 0) | RBC shift N-H, number of subjects [1]: — (“—” = 0) | RBC shift N-L, number of subjects [1]: — (“—” = 0) | Segmented Neutrophils shift H-N, number of subjects [1]: 1 | Segmented Neutrophils shift L-N, number of subjects [1]: — (“—” = 0) | Segmented Neutrophils shift N-H, number of subjects [1]: — (“—” = 0) | Segmented Neutrophils shift N-L, number of subjects [1]: — (“—” = 0) | Absolute Eosinophils shift H-N, number of subjects [2]: — (“—” = 0) | Absolute Eosinophils shift L-N, number of subjects [2]: — (“—” = 0) | Absolute Eosinophils shift N-H, number of subjects [2]: 1 | Absolute Eosinophils shift N-L, number of subjects [2]: — (“—” = 0) | Absolute Neutrophils shift H-N, number of subjects [2]: — (“—” = 0) | Absolute Neutrophils shift L-N, number of subjects [2]: — (“—” = 0) | Absolute Neutrophils shift N-H, number of subjects [2]: — (“—” = 0) | Absolute Neutrophils shift N-L, number of subjects [2]: — (“—” = 0) | Absolute Reticulocytes shift H-N, number of subjects [2]: — (“—” = 0) | Absolute Reticulocytes shift L-N, number of subjects [2]: — (“—” = 0) | Absolute Reticulocytes shift N-H, number of subjects [2]: 2 | Absolute Reticulocytes shift N-L, number of subjects [2]: — (“—” = 0) | Eosinophils shift H-N, number of subjects [2]: 2 | Eosinophils shift L-N, number of subjects [2]: — (“—” = 0) | Eosinophils shift N-H, number of subjects [2]: — (“—” = 0) | Eosinophils shift N-L, number of subjects [2]: — (“—” = 0) | Hematocrit shift H-N, number of subjects [2]: — (“—” = 0) | Hematocrit shift L-N, number of subjects [2]: — (“—” = 0) | Hematocrit shift N-H, number of subjects [2]: — (“—” = 0) | Hematocrit shift N-L, number of subjects [2]: — (“—” = 0) | Hemoglobin shift H-N, number of subjects [2]: — (“—” = 0) | Hemoglobin shift L-N, number of subjects [2]: 1 | Hemoglobin shift N-H, number of subjects [2]: — (“—” = 0) | Hemoglobin shift N-L, number of subjects [2]: 1 | Lymphocytes shift H-N, number of subjects [2]: — (“—” = 0) | Lymphocytes shift L-N, number of subjects [2]: 1 | Lymphocytes shift N-H, number of subjects [2]: — (“—” = 0) | Lymphocytes shift N-L, number of subjects [2]: — (“—” = 0) | Monocytes shift H-N, number of subjects [2]: — (“—” = 0) | Monocytes shift L-N, number of subjects [2]: — (“—” = 0) | Monocytes shift N-H, number of subjects [2]: — (“—” = 0) | Monocytes shift N-L, number of subjects [2]: — (“—” = 0) | Plasma Hemoglobin shift H-N, number of subjects [2]: — (“—” = 0) | Plasma Hemoglobin shift L-N, number of subjects [2]: — (“—” = 0) | Plasma Hemoglobin shift N-H, number of subjects [2]: 2 | Plasma Hemoglobin shift N-L, number of subjects [2]: — (“—” = 0) | Platelet Count shift H-N, number of subjects [2]: — (“—” = 0) | Platelet Count shift L-N, number of subjects [2]: — (“—” = 0) | Platelet Count shift N-H, number of subjects [2]: 1 | Platelet Count shift N-L, number of subjects [2]: — (“—” = 0) | RBC shift H-N, number of subjects [2]: — (“—” = 0) | RBC shift L-N, number of subjects [2]: — (“—” = 0) | RBC shift N-H, number of subjects [2]: — (“—” = 0) | RBC shift N-L, number of subjects [2]: — (“—” = 0) | RDW shift H-N, number of subjects [2]: — (“—” = 0) | RDW shift L-N, number of subjects [2]: — (“—” = 0) | RDW shift N-H, number of subjects [2]: 1 | RDW shift N-L, number of subjects [2]: — (“—” = 0) | Segmented Neutrophils shift H-N, number of subjects [2]: 1 | Segmented Neutrophils shift L-N, number of subjects [2]: — (“—” = 0) | Segmented Neutrophils shift N-H, number of subjects [2]: — (“—” = 0) | Segmented Neutrophils shift N-L, number of subjects [2]: — (“—” = 0) | WBC shift H-N, number of subjects [2]: — (“—” = 0) | WBC shift L-N, number of subjects [2]: — (“—” = 0) | WBC shift N-H, number of subjects [2]: — (“—” = 0) | WBC shift N-L, number of subjects [2]: — (“—” = 0) | Absolute Neutrophils, Median (200 μg/kg, Baseline): 3.00 thousands/mm^3 | Hematocrit, Median (200 μg/kg, Baseline): 46.50% | Hemoglobin, Median (200 μg/kg, Baseline): 15.30 g/dL | Lymphocytes, Median (200 μg/kg, Baseline): 35.80% | Platelet Count, Median (200 μg/kg, Baseline): 263.0 thousands/mm^3 | WBC, Median (200 μg/kg, Baseline): 5.60 thousands/mm^3 | Absolute Neutrophils, Median (200 μg/kg, Day 8): 3.60 thousands/mm^3 | Absolute Neutrophils, Median Change from Baseline (200 μg/kg, Day 8): 0.45 thousands/mm^3 | Hematocrit, Median (200 μg/kg, Day 8): 43.65% | Hematocrit, Median Change from Baseline (200 μg/kg, Day 8): −1.65% | Hemoglobin, Median (200 μg/kg, Day 8): 15.10 g/dL | Hemoglobin, Median Change from Baseline (200 μg/kg, Day 8): -0.20 g/dL | Lymphocytes, Median (200 μg/kg, Day 8): 32.40% | Lymphocytes, Median Change from Baseline (200 μg/kg, Day 8): −2.25% | Platelet Count, Median (200 μg/kg, Day 8): 242.0 thousands/mm^3 | Platelet Count, Median Change from Baseline (200 μg/kg, Day 8): 1.0 thousands/mm^3 | WBC, Median (200 μg/kg, Day 8): 6.65 thousands/mm^3 | WBC, Median Change from Baseline (200 μg/kg, Day 8): 0.35 thousands/mm^3 | Absolute Neutrophils, Median (200 μg/kg, Day 20): 3.80 thousands/mm^3 | Absolute Neutrophils, Median Change from Baseline (200 μg/kg, Day 20): 0.20 thousands/mm^3 | Hematocrit, Median (200 μg/kg, Day 20): 43.80% | Hematocrit, Median Change from Baseline (200 μg/kg, Day 20): −1.50% | Hemoglobin, Median (200 μg/kg, Day 20): 14.50 g/dL | Hemoglobin, Median Change from Baseline (200 μg/kg, Day 20): -0.70 g/dL | Lymphocytes, Median (200 μg/kg, Day 20): 31.50% | Lymphocytes, Median Change from Baseline (200 μg/kg, Day 20): −1.80% | Platelet Count, Median (200 μg/kg, Day 20): 250.0 thousands/mm^3 | Platelet Count, Median Change from Baseline (200 μg/kg, Day 20): −5 thousands/mm^3 | WBC, Median (200 μg/kg, Day 20): 6.20 thousands/mm^3 | WBC, Median Change from Baseline (200 μg/kg, Day 20): 0.40 thousands/mm^3 | WBC concentration (300 ug/kg group, at 20 days): relative increase | Absolute Eosinophils shift H-N, number of subjects [3]: — (“—” = 0) | Absolute Eosinophils shift L-N, number of subjects [3]: — (“—” = 0) | Absolute Eosinophils shift N-H, number of subjects [3]: — (“—” = 0) | Absolute Eosinophils shift N-L, number of subjects [3]: — (“—” = 0) | Absolute Reticulocytes shift H-N, number of subjects [3]: — (“—” = 0) | Absolute Reticulocytes shift L-N, number of subjects [3]: — (“—” = 0) | Absolute Reticulocytes shift N-H, number of subjects [3]: 1 | Absolute Reticulocytes shift N-L, number of subjects [3]: — (“—” = 0) | Eosinophils shift H-N, number of subjects [3]: 1
